Test results from PMC10139940.

target: Active site-blocked human EGR-bound FIXa (human) (UniProt P00740); assay: SPR
Sequence of UniProt P00740 (P00740 47-191, chain 1 of 2): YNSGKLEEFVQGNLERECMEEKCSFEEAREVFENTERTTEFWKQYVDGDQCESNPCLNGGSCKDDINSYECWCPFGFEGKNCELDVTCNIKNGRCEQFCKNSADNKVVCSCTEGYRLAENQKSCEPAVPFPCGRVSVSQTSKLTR
Sequence of UniProt P00740 (P00740 227-461, chain 2 of 2): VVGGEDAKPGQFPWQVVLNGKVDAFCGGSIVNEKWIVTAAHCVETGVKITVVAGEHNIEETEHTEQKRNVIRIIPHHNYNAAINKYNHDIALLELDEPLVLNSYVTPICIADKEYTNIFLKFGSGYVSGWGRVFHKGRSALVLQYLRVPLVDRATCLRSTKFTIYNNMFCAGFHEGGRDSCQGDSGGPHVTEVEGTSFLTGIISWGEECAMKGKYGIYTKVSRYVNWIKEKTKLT

In order of rising Kd:
1. B domain-deleted FVIII mutant K1813A (natural protein)  3.9 nM
2. B domain-deleted FVIII double mutant K1813A/K1818A (natural protein)  4.7 nM
3. B domain-deleted FVIII mutant K1818A (natural protein)  5.1 nM
4. B domain-deleted WT-FVIII lacking Q744-S1637 (natural protein)  6.3 nM
